Test results published in PMC3936769, “Back to translation: removal of aIF2 from the 5′-end of mRNAs by translation recovery factor in the crenarchaeon Sulfolobus solfataricus” (Nucleic Acids Research, 2013).

Target: T1, aIF2-γ subunit of translation initiation factor aIF2, recombinant, His-tagged (Sulfolobus solfataricus, UniProt Q980A5 1-415)
T1 construct: translation initiation factor 2 subunit gamma (aIF2-γ), Sulfolobus solfataricus
T1 sequence (looked up): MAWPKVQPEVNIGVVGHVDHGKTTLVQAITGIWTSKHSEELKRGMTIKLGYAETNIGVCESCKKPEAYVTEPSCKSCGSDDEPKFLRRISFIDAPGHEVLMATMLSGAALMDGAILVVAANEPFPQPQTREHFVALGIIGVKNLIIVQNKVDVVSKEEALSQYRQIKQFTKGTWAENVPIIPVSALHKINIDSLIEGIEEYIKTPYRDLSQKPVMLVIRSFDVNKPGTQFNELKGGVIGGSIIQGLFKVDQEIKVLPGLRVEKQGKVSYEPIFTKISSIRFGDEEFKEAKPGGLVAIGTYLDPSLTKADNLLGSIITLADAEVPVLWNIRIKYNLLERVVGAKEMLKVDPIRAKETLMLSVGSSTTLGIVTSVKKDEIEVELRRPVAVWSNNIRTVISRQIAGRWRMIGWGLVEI
Experiment: native gel or EMSA; acidic native polyacrylamide gel electrophoresis of the individual aIF2 subunits and the trimeric complex (Supplementary Figure S3, lanes 1-4)
Conditions: both partners purified

B1: aIF2-β subunit of translation initiation factor aIF2, recombinant, His-tagged (natural protein, Sulfolobus solfataricus, UniProt Q97W59 1-139, looked up)
chain: MSSEKEYVEMLDRLYSKLPEKGRKEGTQSLPNMIILNIGNTTIIRNFAEYCDRIRREDKICMKYLLKELAAPGNVDDKGELVIQGKFSSQVINTLMERFLKAYVECSTCKSLDTILKKEKKSWYIVCLACGAQTPVKPL
notes: translation initiation factor 2 subunit beta (aIF2-β), Sulfolobus solfataricus; also called aIF2-ß
binding result: binds

B2: aIF2-α subunit of translation initiation factor aIF2, recombinant, His-tagged (natural protein, Sulfolobus solfataricus, UniProt Q97Z79 1-266, looked up)
chain: MIYSRSKLPSEGEILIATVKQVFDYGSYVSLDEYGGLQAFLPWSEVSSKWVKNIRDVLKENRKVIVKVIRVDRRKGTVDVSLKKVTDDERRKKNLQWKKIQRLDKILELVSQKLKLSEKDAWEQVAWKLEAKYGDPITAIEKAVKEGEKILIDAGVPEIWVKPLLEEASKHAEERKVKMSGLITVRTNEPLGVEKIKEVISKALENIEQDYESLLNIKIYTIGAPRYRVDVVGTNPKEASEALNQIISNLIKIGKEENVDISVVKK
notes: translation initiation factor 2 subunit alpha (aIF2-α), Sulfolobus solfataricus
binding result: binds
